Laboratory results from publication PMC2884070.

Target: GST-CypA (cyclophilin A) (human) (UniProt P62937)
Assay: radioligand binding

Sequence of GST-CypA (cyclophilin A) (human) (P62937 whole entry): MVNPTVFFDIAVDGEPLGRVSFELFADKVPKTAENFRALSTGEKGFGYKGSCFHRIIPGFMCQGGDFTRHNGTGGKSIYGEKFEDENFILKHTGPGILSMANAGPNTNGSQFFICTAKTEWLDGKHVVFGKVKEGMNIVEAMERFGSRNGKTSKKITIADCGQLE

Row | Substance | Kd [µM]
1 | full-length NS5A MD2b-1-His (genotype 2b) (natural protein) | 112
2 | NS5A Con1 D320E-His (full length) (natural protein) | 124
